Data as given in the Immune Epitope Database (IEDB).
One block for each sequence: values may come before it.

Tests used:
HLA-C*04:01 = assay: IEDB peptide-MHC binding, purified MHC/competitive/fluorescence; filed as Kd, often an IC50 or EC50 that approximates it; ≥ and ≤ were set here for values at or beyond the usual limits of such assays
HLA-A*69:01 = assay: IEDB peptide-MHC binding, purified MHC/direct/fluorescence; filed as Kd, often an IC50 or EC50 that approximates it; ≥ and ≤ were set here for values at or beyond the usual limits of such assays
HLA-C*05:01 = assay: as above; conditions: source organism: Rattus norvegicus
HLA-A*02:01 [1] = assay: as above
HLA-A*01:01 [2] = assay: as above
HLA-A*11:01 = assay: as above
HLA-B*83:01 = assay: IEDB peptide-MHC binding, purified MHC/competitive/fluorescence; filed as Kd, often an IC50 or EC50 that approximates it; ≥ and ≤ were set here for values at or beyond the usual limits of such assays
HLA-B*15:42 = assay: as above
HLA-B*45:06 = assay: as above
HLA-B*18:01 = assay: IEDB peptide-MHC binding, purified MHC/direct/fluorescence; filed as Kd, often an IC50 or EC50 that approximates it; ≥ and ≤ were set here for values at or beyond the usual limits of such assays
HLA-A*02:11 = assay: as above; conditions: source organism: Mycobacterium tuberculosis str. Haarlem
HLA-B*15:09 = assay: as above; conditions: source organism: Mycobacterium tuberculosis str. Haarlem
HLA-A*26:01 = assay: as above; conditions: source organism: Mycobacterium tuberculosis str. Haarlem
HLA-B*46:01 = assay: as above
HLA-A*31:01 = assay: as above
HLA-B*15:17 = assay: as above
HLA-B*27:05 = assay: as above
HLA-B*48:01 = assay: as above
HLA-A*03:01 = assay: as above
HLA-B*15:01 = assay: as above
HLA-B*57:01 = assay: as above
HLA-A*02:12 [3] = assay: as above; conditions: source organism: Mycobacterium tuberculosis str. Haarlem
HLA-B*58:01 = assay: as above
HLA-B*40:01 = assay: as above
HLA-B*51:01 = assay: as above
HLA-B*39:01 = assay: as above; conditions: source organism: Mycobacterium tuberculosis str. Haarlem
HLA-A*02:16 = assay: IEDB peptide-MHC binding, purified MHC/competitive/fluorescence; filed as Kd, often an IC50 or EC50 that approximates it; ≥ and ≤ were set here for values at or beyond the usual limits of such assays; conditions: source organism: Entamoeba histolytica HM-1:IMSS
HLA-A*02:01 [4] = assay: as above
HLA-B*08:02 = assay: IEDB peptide-MHC binding, purified MHC/direct/fluorescence; filed as Kd, often an IC50 or EC50 that approximates it; ≥ and ≤ were set here for values at or beyond the usual limits of such assays
HLA-B*07:02 = assay: as above; conditions: source organism: Yellow fever virus
HLA-B*44:02 = assay: as above; conditions: source organism: Yellow fever virus
HLA-A*01:01 [5] = assay: IEDB peptide-MHC binding, purified MHC/competitive/fluorescence; filed as Kd, often an IC50 or EC50 that approximates it; ≥ and ≤ were set here for values at or beyond the usual limits of such assays; conditions: source organism: Mycobacterium tuberculosis variant bovis BCG str. Pasteur 1173P2
HLA-A*02:12 [6] = assay: as above; conditions: source organism: Giardia lamblia ATCC 50803
[7] = source organism: West Nile virus
[8] = source organism: Burkholderia mallei
[9] = source organism: Mycobacterium tuberculosis C
[10] = source organism: Yellow fever virus
[11] = source organism: Mycobacterium tuberculosis

Kd (HLA-C*04:01; source organism: Rattus norvegicus): 0.0015 µM
Kd (HLA-A*69:01; source organism: Homo sapiens): ≥ 28.4 µM
Kd (HLA-C*05:01): 0.109 µM
Kd (HLA-A*02:01 [1]; source organism: Homo sapiens): ≥ 22.7 µM
Kd (HLA-A*01:01 [2]; source organism: Homo sapiens): 3.6 µM
Kd (HLA-A*11:01; source organism: Homo sapiens): ≥ 44.1 µM
Sequence: YFDPANGKF

Sequence: REWFMDLNL
Kd (HLA-B*83:01; [7]): ≥ 5 µM
Kd (HLA-C*04:01; [7]): ≥ 5 µM
Kd (HLA-B*15:42; [7]): ≥ 5 µM
Kd (HLA-B*45:06; [7]): ≥ 5 µM
Kd (HLA-B*18:01; [7]): 1.36 µM

Sequence: APAKKAAAK
Kd (HLA-A*69:01; [8]): ≥ 20 µM
Kd (HLA-A*02:11): ≥ 20 µM
Kd (HLA-B*15:09): ≥ 20 µM
Kd (HLA-A*26:01): ≥ 20 µM
Kd (HLA-B*46:01; [8]): ≥ 20 µM
Kd (HLA-A*31:01; [8]): ≥ 20 µM
Kd (HLA-B*15:17; [8]): ≥ 20 µM
Kd (HLA-B*27:05; [8]): ≥ 20 µM
Kd (HLA-B*48:01; [8]): ≥ 20 µM
Kd (HLA-A*03:01; [8]): ≥ 20 µM
Kd (HLA-B*15:01; [8]): ≥ 20 µM
Kd (HLA-B*57:01; [8]): ≥ 20 µM
Kd (HLA-A*02:12 [3]): ≥ 20 µM
Kd (HLA-A*02:01 [1]; [8]): ≥ 20 µM
Kd (HLA-B*58:01; [8]): ≥ 20 µM
Kd (HLA-B*40:01; [8]): ≥ 20 µM
Kd (HLA-B*51:01; [8]): ≥ 20 µM
Kd (HLA-B*18:01; [8]): ≥ 20 µM
Kd (HLA-A*01:01 [2]; [8]): ≥ 20 µM
Kd (HLA-B*39:01): ≥ 20 µM
Kd (HLA-A*11:01; [8]): ≥ 20 µM

Sequence: FHFNPLPNV
Kd (HLA-A*02:16): 0.129 µM
Kd (HLA-A*02:01 [4]; source organism: Entamoeba histolytica HM-1:IMSS): 0.115 µM

Sequence: RLYELIGSV
Kd (HLA-B*83:01; [9]): ≥ 5 µM
Kd (HLA-C*04:01; [9]): ≥ 5 µM
Kd (HLA-B*15:42; [9]): ≥ 5 µM
Kd (HLA-B*45:06; [9]): ≥ 5 µM

Sequence: YFHKRDMRL
Kd (HLA-A*69:01; [10]): ≥ 20 µM
Kd (HLA-B*08:02; [10]): 4.63 µM
Kd (HLA-B*46:01; [10]): ≥ 20 µM
Kd (HLA-B*27:05; [10]): ≥ 20 µM
Kd (HLA-B*48:01; [10]): ≥ 20 µM
Kd (HLA-A*03:01; [10]): ≥ 20 µM
Kd (HLA-B*15:01; [10]): ≥ 20 µM
Kd (HLA-B*57:01; [10]): ≥ 20 µM
Kd (HLA-B*07:02): ≥ 20 µM
Kd (HLA-B*58:01; [10]): ≥ 20 µM
Kd (HLA-B*40:01; [10]): ≥ 20 µM
Kd (HLA-B*18:01; [10]): ≥ 20 µM
Kd (HLA-A*01:01 [2]; [10]): ≥ 20 µM
Kd (HLA-A*11:01; [10]): ≥ 20 µM
Kd (HLA-B*44:02): ≥ 20 µM

Sequence: SPREECGVF
Kd (HLA-A*01:01 [5]): ≥ 20 µM
Kd (HLA-A*69:01; [11]): ≥ 20 µM
Kd (HLA-B*15:09): ≥ 20 µM
Kd (HLA-A*26:01): ≥ 20 µM
Kd (HLA-B*08:02; source organism: Mycobacterium tuberculosis str. Haarlem): ≥ 20 µM
Kd (HLA-B*46:01; [11]): ≥ 20 µM
Kd (HLA-A*31:01; [11]): ≥ 20 µM
Kd (HLA-B*15:17; [11]): ≥ 20 µM
Kd (HLA-B*27:05; [11]): ≥ 20 µM
Kd (HLA-B*48:01; [11]): ≥ 20 µM
Kd (HLA-A*03:01; [11]): ≥ 20 µM
Kd (HLA-B*15:01; [11]): 1.2 µM
Kd (HLA-B*57:01; [11]): ≥ 20 µM
Kd (HLA-A*02:01 [1]; [11]): ≥ 20 µM
Kd (HLA-B*58:01; [11]): ≥ 20 µM
Kd (HLA-B*40:01; [11]): ≥ 20 µM
Kd (HLA-B*51:01; [11]): ≥ 20 µM
Kd (HLA-B*18:01; [11]): ≥ 20 µM
Kd (HLA-A*11:01; [11]): ≥ 20 µM

Sequence: SVFQGALFA
Kd (HLA-A*02:12 [6]): 11 µM
Kd (HLA-A*02:01 [4]; source organism: Giardia lamblia ATCC 50803): 1.89 µM

Sequence: EVRLATMLF
Kd (HLA-B*08:02; [10]): ≥ 20 µM
Kd (HLA-B*46:01; [10]): ≥ 20 µM
Kd (HLA-A*31:01; [10]): ≥ 20 µM
Kd (HLA-B*27:05; [10]): ≥ 20 µM
Kd (HLA-B*48:01; [10]): ≥ 20 µM
Kd (HLA-A*03:01; [10]): ≥ 20 µM
Kd (HLA-B*57:01; [10]): ≥ 20 µM
Kd (HLA-A*02:01 [1]; [10]): ≥ 20 µM
Kd (HLA-B*58:01; [10]): ≥ 20 µM
Kd (HLA-B*40:01; [10]): ≥ 20 µM
Kd (HLA-A*01:01 [2]; [10]): ≥ 20 µM
Kd (HLA-A*11:01; [10]): ≥ 20 µM
Kd (HLA-B*44:02): ≥ 20 µM
